Results on three substances are retold here after publication PMC8634867.

The assay addresses C10A mutant of Arabidopsis thaliana cytochrome c1, soluble domain (Arabidopsis thaliana). As to the kind of experiment: BLI; His6-tagged Cc1 (50 ug/mL) immobilised on Ni-NTA biosensors (Octet RED 96e); Cc at 0.3215-10 uM; 10 mM sodium phosphate pH 7.4, 0.01 uM rabbit serum albumin, 0.01% Triton X-100; both proteins reduced; wavelength shift at equilibrium fitted to a non-linear equation with a linear non-specific term; in duplicate. In general terms: Biolayer interferometry detects binding as a change in optical thickness at a sensor tip.
Broadly, the Kd is the concentration at which binding is half-saturated. On to “human cytochrome c K8Q acetyl-mimetic mutant (from UniProt P99999 1-105) (natural protein)”, for which the dissociation constant Kd stood at 99 nM.
The result for “human cytochrome c K53Q acetyl-mimetic mutant (from UniProt P99999 1-105) (natural protein)” reads 116 nM; that for “human cytochrome c, wild-type (from UniProt P99999 1-105) (natural protein)”, 137 nM.
